Source: the RNAGym collection of RNA variant scans (doi:10.7554/elife.80360)

B1: Hammerhead Ribozyme (parent)
chain: ACCGGAUGUGCUUUCCGGUCUGAUGAGUCCGUGAGGACGAAACAG

Variants of: B1
Experiment: self-cleavage, relative activity (ratio to wild type); higher = more cleavage; co-transcriptional

First: ACCGGAUGUGCUUUCCGGUCUGAUGAGUCCGGGAGGACGAAACAC [U32G G45C]
Second: ACCGGAUGUGCUUUCCGGUCUGAUGAGUCCGGGAGGACGAAACAU [U32G G45U]
The self-cleavage of the first is higher: 0.712 for the first, 0.587 for the second.

Compared with ACCGGAUGUGCUUUCCGGUCUGAUGAGUCCGGGAGGACGAAACAA [U32G G45A], ACCGGAUGUGCUUUCCGGUCUGAUGAGUCCGUAAGGACCAAACAG [G33A G39C] is lower in self-cleavage: 0.56 for the first, 0.503 for the second.

First: ACCGGAUGUGCUUUCCGGUCUGAUGAGUCCGUAAGGACAAAACAG [G33A G39A]
Second: ACCGGAUGUGCUUUCCGGUCUGAUGAGUCCGUAAGGACUAAACAG [G33A G39U]
The self-cleavage of the first is higher: 0.429 for the first, 0.344 for the second.

Going from ACCGGAUGUGCUUUCCGGUCUGAUGAGUCCGUAAGGACGACACAG [G33A A41C] to ACCGGAUGUGCUUUCCGGUCUGAUGAGUCCGUAAGGACGAGACAG [G33A A41G], the self-cleavage falls from 0.465 to 0.384.

Going from ACCGGAUGUGCUUUCCGGUCUGAUGAGUCCGUAAGGACGAUACAG [G33A A41U] to ACCGGAUGUGCUUUCCGGUCUGAUGAGUCCGUAAGGGCGAAACAG [G33A A37G], the self-cleavage rises from 0.428 to 1.28.

Going from ACCGGAUGUGCUUUCCGGUCUGAUGAGUCCGUAAGGCCGAAACAG [G33A A37C] to ACCGGAUGUGCUUUCCGGUCUGAUGAGUCCGUAAGGUCGAAACAG [G33A A37U], the self-cleavage falls from 1.03 to 0.727.

Compared with ACCGGAUGUGCUUUCCGGUCUGAUGAGUCCGGGAGGCCGAAACAG [U32G A37C], ACCGGAUGUGCUUUCCGGUCUGAUGAGUCCGGGAGGUCGAAACAG [U32G A37U] is higher in self-cleavage: 0.431 for the first, 0.46 for the second.

Compared with ACCGGAUGUGCUUUCCGGUCUGAUGAGUCCGGGAGGGCGAAACAG [U32G A37G], ACCGGAUGUGCUUUCCGGUCUGAUGAGUCCGGGAGGACGAUACAG [U32G A41U] is lower in self-cleavage: 0.448 for the first, 0.318 for the second.

Compared with ACCGGAUGUGCUUUCCGGUCUGAUGAGUCCGGGAGGACGACACAG [U32G A41C], ACCGGAUGUGCUUUCCGGUCUGAUGAGUCCGGGAGGACGAGACAG [U32G A41G] is lower in self-cleavage: 0.459 for the first, 0.299 for the second.

Compared with ACCGGAUGUGCUUUCCGGUCUGAUGAGUCCGGGAGGACGUAACAG [U32G A40U], ACCGGAUGUGCUUUCCGGUCUGAUGAGUCCGGGAGGACGCAACAG [U32G A40C] is lower in self-cleavage: 0.39 for the first, 0.372 for the second.

First: ACCGGAUGUGCUUUCCGGUCUGAUGAGUCCGGGAGGACGGAACAG [U32G A40G]
Second: ACCGGAUGUGCUUUCCGGUCUGAUGAGUCCGCGAGGACUAAACAG [U32C G39U]
The self-cleavage of the first is lower: 0.342 for the first, 0.369 for the second.

Going from ACCGGAUGUGCUUUCCGGUCUGAUGAGUCCGCGAGGACCAAACAG [U32C G39C] to ACCGGAUGUGCUUUCCGGUCUGAUGAGUCCGCGAGGACAAAACAG [U32C G39A], the self-cleavage falls from 0.375 to 0.317.

First: ACCGGAUGUGCUUUCCGGUCUGAUGAGUCCGGGAGGAAGAAACAG [U32G C38A]
Second: ACCGGAUGUGCUUUCCGGUCUGAUGAGUCCGGGAGGAUGAAACAG [U32G C38U]
The self-cleavage of the first is higher: 0.674 for the first, 0.559 for the second.

First: ACCGGAUGUGCUUUCCGGUCUGAUGAGUCCGGGAGGAGGAAACAG [U32G C38G]
Second: ACCGGAUGUGCUUUCCGGUCUGAUGAGUCCGUAAGGACGAAAGAG [G33A C43G]
The self-cleavage of the first is higher: 0.497 for the first, 0.371 for the second.

First: ACCGGAUGUGCUUUCCGGUCUGAUGAGUCCGUAAGGACGAAAUAG [G33A C43U]
Second: ACCGGAUGUGCUUUCCGGUCUGAUGAGUCCGUAAGGACGAAAAAG [G33A C43A]
The self-cleavage of the first is higher: 0.816 for the first, 0.369 for the second.

First: ACCGGAUGUGCUUUCCGGUCUGAUGAGUCCGCGAGGACGAAACAU [U32C G45U]
Second: ACCGGAUGUGCUUUCCGGUCUGAUGAGUCCGCGAGGACGAAACAC [U32C G45C]
The self-cleavage of the first is higher: 0.635 for the first, 0.425 for the second.

Compared with ACCGGAUGUGCUUUCCGGUCUGAUGAGUCCGCGAGGACGAAACAA [U32C G45A], ACCGGAUGUGCUUUCCGGUCUGAUGAGUCCGCGAAGACGAAACAG [U32C G35A] is higher in self-cleavage: 0.776 for the first, 0.83 for the second.

First: ACCGGAUGUGCUUUCCGGUCUGAUGAGUCCGCGAUGACGAAACAG [U32C G35U]
Second: ACCGGAUGUGCUUUCCGGUCUGAUGAGUCCGCGACGACGAAACAG [U32C G35C]
The self-cleavage of the first is higher: 0.795 for the first, 0.647 for the second.

First: ACCGGAUGUGCUUUCCGGUCUGAUGAGUCCGUAAGGACGAAGCAG [G33A A42G]
Second: ACCGGAUGUGCUUUCCGGUCUGAUGAGUCCGUAAGGACGAAUCAG [G33A A42U]
The self-cleavage of the first is lower: 0.256 for the first, 0.27 for the second.

First: ACCGGAUGUGCUUUCCGGUCUGAUGAGUCCGUAAGGACGAACCAG [G33A A42C]
Second: ACCGGAUGUGCUUUCCGGUCUGAUGAGUCCGGUAGGACGAAACAG [U32G G33U]
The self-cleavage of the first is lower: 0.394 for the first, 0.838 for the second.

First: ACCGGAUGUGCUUUCCGGUCUGAUGAGUCCGGAAGGACGAAACAG [U32G G33A]
Second: ACCGGAUGUGCUUUCCGGUCUGAUGAGUCCGGCAGGACGAAACAG [U32G G33C]
The self-cleavage of the first is lower: 0.843 for the first, 0.966 for the second.

Compared with ACCGGAUGUGCUUUCCGGUCUGAUGAGUCCGUAAAGACGAAACAG [G33A G35A], ACCGGAUGUGCUUUCCGGUCUGAUGAGUCCGUAACGACGAAACAG [G33A G35C] is lower in self-cleavage: 0.825 for the first, 0.787 for the second.

First: ACCGGAUGUGCUUUCCGGUCUGAUGAGUCCGUAAUGACGAAACAG [G33A G35U]
Second: ACCGGAUGUGCUUUCCGGUCUGAUGAGUCCGCGAGGACGACACAG [U32C A41C]
The self-cleavage of the first is higher: 0.866 for the first, 0.294 for the second.

Going from ACCGGAUGUGCUUUCCGGUCUGAUGAGUCCGCGAGGACGAGACAG [U32C A41G] to ACCGGAUGUGCUUUCCGGUCUGAUGAGUCCGCGAGGACGAUACAG [U32C A41U], the self-cleavage rises from 0.311 to 0.474.

Compared with ACCGGAUGUGCUUUCCGGUCUGAUGAGUCCGGGAGGACCAAACAG [U32G G39C], ACCGGAUGUGCUUUCCGGUCUGAUGAGUCCGGGAGGACAAAACAG [U32G G39A] is lower in self-cleavage: 0.497 for the first, 0.362 for the second.

Compared with ACCGGAUGUGCUUUCCGGUCUGAUGAGUCCGGGAGGACUAAACAG [U32G G39U], ACCGGAUGUGCUUUCCGGUCUGAUGAGUCCGCGAGGAGGAAACAG [U32C C38G] is higher in self-cleavage: 0.317 for the first, 0.691 for the second.

First: ACCGGAUGUGCUUUCCGGUCUGAUGAGUCCGCGAGGAAGAAACAG [U32C C38A]
Second: ACCGGAUGUGCUUUCCGGUCUGAUGAGUCCGCGAGGAUGAAACAG [U32C C38U]
The self-cleavage of the first is lower: 0.691 for the first, 0.726 for the second.

Going from ACCGGAUGUGCUUUCCGGUCUGAUGAGUCCGCGAGGACGAAGCAG [U32C A42G] to ACCGGAUGUGCUUUCCGGUCUGAUGAGUCCGCGAGGACGAAUCAG [U32C A42U], the self-cleavage rises from 0.364 to 0.366.

For ACCGGAUGUGCUUUCCGGUCUGAUGAGUCCGCGAGGACGAACCAG [U32C A42C], the self-cleavage was 0.316.
